The data set deals with the molecule itself. Briefly: dimer-sized band on SDS-PAGE Western blot; TMEM18 purified from insect cells, bound to DNA-cellulose, washed and eluted with 0.5 M, 1 M and 2 M salt; anti-Flag Western blot; dimer form approx. 34 kDa against monomer form approx. 17 kDa. (Immunoblotting shows a protein as a band on a membrane.)

B1: TMEM18 produced in insect cells (N-terminal Flag-tag followed by eight histidines) (natural protein)
chain: not shown
notes: TMEM18, 140 amino acids; cloned into pK509.3 vector; Flag-tag first, then eight histidine repeats, then TMEM18; detected by anti-Flag Western blot; also called histidine and Flag-tagged TMEM18; source: Sf9 or Tn5 insect cells (baculovirus), purified (nuclear extract in dodecyl maltoside, Ni-sepharose); not shown: Flag, N-terminal, kept
With B1, the binding result is listed as “binds”.

For the origin of these results see article PMC3182218, “Obesity Risk Gene TMEM18 Encodes a Sequence-Specific DNA-Binding Protein” (PLoS ONE, 2011).
